Results taken from publication PMC4335047, “Interaction between the tRNA-Binding and C-Terminal Domains of Yeast Gcn2 Regulates Kinase Activity In Vivo” (PLoS Genetics, 2015).

Legend:
Test in all cases: pull-down; purified GST fusions (5 μg) immobilised on glutathione-Sepharose 4B beads; in vitro translated [35S]-HisRS(970–1497), partially purified by ammonium sulfate precipitation; buffer A, 4°C, 2 h; without or with increasing tRNA^Phe or a model mRNA; fluorography
Conditions in all cases: one partner purified
[1] = target: T1, GST-CTD (Gcn2 residues 1498–1659) (S. cerevisiae, UniProt P15442 1498-1659)
T1 construct: Gcn2 of S. cerevisiae, C-terminal domain (CTD), residues 1498-1659; a pGEX vector with the tac promoter points to E. coli; also called GST-GCN2(1498–1659); source: purified GST fusion (P tac, pGEX-5x-1); not shown: GST, N-terminal, kept
T1 sequence (looked up): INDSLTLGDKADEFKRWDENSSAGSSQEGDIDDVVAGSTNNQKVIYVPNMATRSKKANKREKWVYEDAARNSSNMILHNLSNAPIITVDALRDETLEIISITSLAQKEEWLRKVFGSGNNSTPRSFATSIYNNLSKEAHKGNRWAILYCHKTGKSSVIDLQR

[2] = target: T2, GST-KD (Gcn2 residues 568–998) (S. cerevisiae, UniProt P15442 568-998)
T2 construct: Gcn2 of S. cerevisiae, kinase domain (KD), residues 568-998; a pGEX vector with the tac promoter points to E. coli; also called GST-GCN2(568–998); source: purified GST fusion (P tac, pGEX-5x-1); not shown: GST, N-terminal, kept

[3] = target: T3, GST-HisRS (Gcn2 residues 970–1497), wild type (S. cerevisiae, UniProt P15442 970-1497)
T3 construct: Gcn2 of S. cerevisiae, HisRS-related domain, residues 970-1497; also called WT GST-HisRS; GST-HisRS (970–1497); not shown: GST, N-terminal, kept
T3 sequence (looked up): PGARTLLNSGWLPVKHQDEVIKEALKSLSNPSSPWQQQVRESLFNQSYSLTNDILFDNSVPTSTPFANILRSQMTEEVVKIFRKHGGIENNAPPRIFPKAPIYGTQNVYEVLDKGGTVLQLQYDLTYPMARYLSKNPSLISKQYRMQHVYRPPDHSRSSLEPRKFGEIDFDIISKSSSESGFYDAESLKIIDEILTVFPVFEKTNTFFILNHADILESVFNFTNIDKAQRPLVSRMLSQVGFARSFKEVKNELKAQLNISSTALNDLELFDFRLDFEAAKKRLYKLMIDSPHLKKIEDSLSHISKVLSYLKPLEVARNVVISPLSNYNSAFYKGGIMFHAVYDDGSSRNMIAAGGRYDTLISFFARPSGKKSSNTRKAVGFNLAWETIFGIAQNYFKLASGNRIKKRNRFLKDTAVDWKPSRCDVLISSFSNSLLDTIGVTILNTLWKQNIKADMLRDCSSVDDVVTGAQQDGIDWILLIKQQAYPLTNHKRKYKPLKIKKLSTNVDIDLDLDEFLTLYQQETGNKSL

T2 sequence (P15442 568-998): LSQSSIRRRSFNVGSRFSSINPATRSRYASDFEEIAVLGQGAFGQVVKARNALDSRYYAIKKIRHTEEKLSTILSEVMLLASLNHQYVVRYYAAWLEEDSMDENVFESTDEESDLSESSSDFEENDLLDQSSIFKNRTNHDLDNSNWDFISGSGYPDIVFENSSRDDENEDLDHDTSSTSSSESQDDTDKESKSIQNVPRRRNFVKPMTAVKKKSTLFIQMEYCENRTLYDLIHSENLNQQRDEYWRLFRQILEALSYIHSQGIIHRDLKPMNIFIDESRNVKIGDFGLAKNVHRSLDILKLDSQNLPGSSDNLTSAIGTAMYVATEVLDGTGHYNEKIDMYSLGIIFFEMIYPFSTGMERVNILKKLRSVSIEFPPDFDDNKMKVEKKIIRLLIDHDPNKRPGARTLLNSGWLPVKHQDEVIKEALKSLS

B1: [35S]-HisRS(970–1497) segment of Gcn2 (domain or fragment, S. cerevisiae, UniProt P15442 970-1497, looked up)
chain: T3 sequence (looked up)
modifications: [35S]-methionine labeled
notes: Gcn2 of S. cerevisiae, HisRS-related domain, residues 970-1497; P T7-GCN2 (970–1497) in pGEM-3Z; also called [^35S]-methionine labeled HisRS fragment; [^35S]-HisRS domain fragments; source: in vitro translated (TNT T7 Coupled Reticulocyte Lysate System), partially purified by ammonium sulfate precipitation
In the case of B1, the “fold reduction of the pull-down on addition of tRNA^Phe” value (from here on “fold reduction of the pull-down”) [1] is reported as roughly 5.4 fold, the “fold reduction of the pull-down” value [2] is reported as roughly 1.8 fold and the “fold reduction of the pull-down” value [3] is reported as roughly 2.1 fold.
